Experimental data published in patent US20200071416A1 (ASTUTE MEDICAL, published 2020).

T1: TIMP-2 region 132PWDTLSTTQKK142 (human)
T1 construct: This exact peptide was not itself the assayed species
T1 peptide: PWDTLSTTQKK

T2: TIMP-2 region 145NHRYQMGCECKI156 (human)
T2 construct: This exact peptide was not itself the assayed species
T2 peptide: NHRYQMGCECKI


Tests used:
[1] = target: T1, TIMP-2 region 132PWDTLSTTQKK142; experiment: Pepscan ELISA on linear 15-mer TIMP-2 peptides
Description: (§1) Synthetic linear peptides were synthesized and screened as described by Slootstra et al. (Slootstra et al., 1996, Mol. Diversity 1, 87-96) and Timmerman et al. (Timmerman et al., 2007, J, Mol Recognit 20, 283-299). The binding of antibody to each peptide was tested in a PEPSCAN-based enzyme-linked immuno assay (ELISA). The covalently linked peptides were incubated with sample (for example 1 μg/mL antibody diluted in a PBS solution containing 5% horse serum (vol/vol) and 4% ovalbumin (weight/vol)) and 1% Tween 80 at 4° C. overnight. After washing, the peptides were incubated with Goat-anti-Rabbit HRP (Jackson Immunoresearch) for 1 hour at 25° C., and subsequently, after washing the peroxidase substrate 2,2′-azino-di-3-ethylbenzthiazoline sulfonate (ABTS) and […] 3% H₂O₂ were added. After 1 hour the color development was measured.

[2] = target: T2, TIMP-2 region 145NHRYQMGCECKI156; experiment: Pepscan ELISA on linear 15-mer TIMP-2 peptides
Description: as §1

Binder | binding result [1] | binding result [2]
antibody 6E2.1 (antibody, V domains shown, Both are partial: a leader, the variable domain and only the start of the constant region) VH: QVQLQQSGPQLVRPGASVKISCKASGYSFTSYWMHWVKQRPGQGLEWIGVIDPSDSETRLNQKFKDKATLTVDKSSSTAYMQLNSPTSEDSAVYYCARRDYGSRYDAMDYWGQGTSVTVSS VL: DIQMTQSSSYLSVSLGGRVTITCKASDHINNWLAWYQQKPGNAPRLLISGATSLETGVPSRFSGSGSGKDYTLSITSLQTEDVATYYCQQYWSTPFTFGSGTKLEIK | binds | 
antibody 40H2-40K3 (antibody, V domains shown) VH: QSLEESGGDLVKPEGSLTLTCTASGFTISSNYYMCWVRQAPGKGLEWVACILGGSGTYTYYATWAKGRFTISKTSSTTVTLQMPSLTAADTATYFCARQAPADTYLYGGYGPFNLWGQGTLVTVSS VL: DIVMTQTPSSVEAAVGGTVTIKCQASESISGWLAWYQQKPGQPPKLLIYRASTLESGVPSRFKGSGSGTEFTLTISDLECADAATYYCQCSYGINGNSEHGNPFGGGTEVVVKR |  | binds
